We go through two proteins from paper PMC7549839, “Posttranslational insertion of small membrane proteins by the bacterial signal recognition particle” (PLoS Biology, 2020).

Data set [1] concerns the molecule itself. The experiment in a line: SDS-resistant dimer on SDS-PAGE; YohPHis expressed in vivo; whole cells or cell fractions (INV), Tricine-SDS-PAGE, western blot with anti-His antibodies.
Data set [2] concerns the molecule itself. The experiment in a line: SDS-resistant dimer on SDS-PAGE; in vivo expression, 35S pulse-chase labelling with rifampicin; whole cells or fractions TCA precipitated, Tricine-SDS-PAGE, autoradiography.

B1: His-tagged YohP (YohPHis) (natural protein, E. coli, UniProt C1P609 1-27, looked up)
chain: MKIILWAVLIIFLIGLLVVTGVFKMIF
notes: YohP, small membrane protein of E. coli, 27 amino acids; also called YohP_(His6); source: E. coli, expressed in vivo from pBad24 (arabinose) or pET19b (IPTG); whole cells TCA precipitated or cell fractions (INV); not shown: His6, C-terminal, kept
In the case of B1, the “stoichiometry N” value in data set [1] came to 2.

B2: YohP (nontagged) (natural protein, E. coli, UniProt C1P609 1-27, looked up)
chain: MKIILWAVLIIFLIGLLVVTGVFKMIF
notes: YohP, small membrane protein of E. coli, 27 amino acids; also called nontagged YohP; source: E. coli C43(DE3) with pET19b-YohP, expressed in vivo, pulse-labelled with 35S methionine/cysteine; whole cells or cell fractions
Turning to B2, the “stoichiometry N” value in data set [2] was found to be 2.
